Reference: patent US20040009175A1

How the values were obtained:
[1] = biological target: Recombinant GST-MEK5 [GST: P08515]
GST-MEK4 [GST: P08515] = assay: cell-based or functional assay
myc-tagged MEK3 = assay: cell-based or functional assay

activation of GST-MEK4 toward (His)6p38 (in vitro linked kinase assay) (GST-MEK4 [GST: P08515])	activation of GST-MEK4 towards GST-SAPKβ (in vitro linked kinase assay) (GST-MEK4 [GST: P08515])	MEK3 activity in anti-myc immunoprecipitates from co-transfected 293 cells (myc-tagged MEK3)	activity toward p38 of myc-tagged MEK3 immunoprecipitated from co-transfected 293 cells (myc-tagged MEK3)	Binder	enhancement of the ability of MEK3 to phosphorylate p38 (in vitro linked kinase assay) ((His)6MEK3)	phosphorylation of GST-MEK5 (in vitro kinase assay) [1]	activity of MEK1 towards the substrate (His)6ERK2 (in vitro linked kinase assay) (MEK1)	activity of MEK2 towards the substrate (His)6ERK2 (in vitro linked kinase assay) (MEK2)	increase of the ability of GST-MEK6 to phosphorylate (His)6p38 (in vitro linked kinase assay) (GST-MEK6 [GST: P08515])
5 fold	150 fold			(His)6TAO1(1-416) (protein) MRGSHHHHHHMPSTNRAGSLKDPEIAELFFKEDPEKLFTDLREIGHGSFGAVYFARDVRTNEVVAIKKMSYSGKQSTEKWQDIIKEVKFLQRIKHPNSIEYKGCYLREHTAWLVMEYCLGSASDLLEVHKKPLQEVEIAAITHGALQGLAYLHSHTMIHRDIKAGNILLTEPGQVKLADFGSASMASPANSFVGTPYWMAPEVILAMDEGQYDGKVDVWSLGITCIELAERKPPLFNMNAMSALYHIAQNESPTLQSNEWSDYFRNFVDSCLQKIPQDRPTSEELLKHMFVLRERPETVLIDLIQRTKDAVRELDNLQYRKMKKLLFQEAHNGPAVEAQEEEEEQDHGGGRTGTVNSVGSNQSIPSMSISASSQSSSVNSLPDASDDKSELDMMEGDHTVMSNSSVIHLKPEEENYQEEGDPRTRA	approximately 100-fold	Recombinant GST-MEK5 was not phosphorylated by (His)6TAO1(1-416)	completely unable to increase the activity of MEK1 or MEK2 towards the substrate (His)6ERK2	completely unable to increase the activity of MEK1 or MEK2 towards the substrate (His)6ERK2	by 5-fold
		3 to 4 fold	3 fold	full-length HA-tagged TAO1 (enzyme, not shown: small tags and cut ends) MPSTNRAGSLKDPEIAELFFKEDPEKLFTDLREIGHGSFGAVYFARDVRTNEVVAIKKMSYSGKQSTEKWQDIIKEVKFLQRIKHPNSIEYKGCYLREHTAWLVMEYCLGSASDLLEVHKKPLQEVEIAAITHGALQGLAYLHSHTMIHRDIKAGNILLTEPGQVKLADFGSASMASPANSFVGTPYWMAPEVILAMDEGQYDGKVDVWSLGITCIELAERKPPLFNMNAMSALYHIAQNESPTLQSNEWSDYFRNFVDSCLQKIPQDRPTSEELLKHMFVLRERPETVLIDLIQRTKDAVRELDNLQYRKMKKLLFQEAHNGPAVEAQEEEEEQDHGGGRTGTVNSVGSNQSIPSMSISASSQSSSVNSLPDASDDKSELDMMEGDHTVMSNSSVIHLKPEEENYQEEGDPRTRASAPQSPPQVSRHKSHYRNREHFATIRTASLVTRQMQEHEQDSELREQMSGYKRMRRQHQKQLMTLENKLKAEMDEHRLRLDKDLETQRNNFAAEMEKLIKKHQASMEKEAKVMANEEKKFQQHIQAQQKKELNSFLESQKREYKLRKEQLKEELNENQSTPKKEKQEWLSKQKENIQHFQAEEEANLLRRQRQYLELECRRFKRRMLLGRHNLEQDLVREELNKRQTQKDLEHAMLLRQHESMQELEFRHLNTIQKMRCELIRLQHQTELTNQLEYNKRRERELRRKHVMEVRQQPKSLKSKELQIKKQFQDTCKIQTRQYKALRNHLLETTPKSEHKAVLKRLKEEQTRKLAILAEQYDHSINEMLSTQALRLDEAQEAECQVLKMQLQQELELLNAYQSKIKMQAEAQHDRELRELEQRVSLRRALLEQKIEEEMLALQNERTERIRSLLERQAREIEAFDSESMRLGFSNMVLSNLSPEAFSHSYPGASSWSHNPTGGSGPHWGHPMGGTPQAWGHPMQGGPQPWGHPSGPMQGVPRGSSIGVRNSPQALRRTALGGRTEQGMSRSTSVTSQISNGSHMSYT					
